Six molecules from US20260193376A1 (Novo Nordisk, published 2026) can be followed below.

Positions count from the first letter of the chain named.

Assay [1] concerns the target T1, human plasma-derived Factor IXa (human, UniProt P00740 47-191; P00740 227-461).
T1 construct: also called FIXa; hFIXa
The assay is described as follows: ITC, 37 °C, pH 7.4, antibody injected into FIXa. On the procedure: (§1) Binding affinities for anti-FIX(a) and anti-FX(a) antibodies were measured by isothermal titration calorimetry […] by using a PEAQ-ITC calorimeter (Malvern, UK). The experiments were conducted at 37° C. and pH 7.4 using 25 mM Tris, 150 mM NaCl, 5 mM CaCl₂ (Tris-buffer). The sample cell (200 μl) contained either FIX, FIXa, or FX (macromolecule) and anti-FIX(a) and anti-FX(a) antibodies (ligand) were injected via a syringe (40 μl). All proteins were extensively dialyzed in Tris-buffer prior to measurements to secure matched buffer conditions. A thermal equilibration step was followed by a 60 s delay and subsequently an initial 0.2 μl injection of antibody, followed by 12-16 injections of 1.5-3 μl of antibody at an interval of 120 s. The stirring speed was maintained at 750 rpm, and the reference power is kept constant at 5-10 μcal/s. The heat associated with each injection of antibody is integrated and plotted against the molar ratio of ligand to macromolecule. The resulting isotherm is fitted to a one-site binding model to obtain the affinity (KD), stoichiometry (n), and enthalpy of interaction (ΔH) using the software provided by the manufacturer. Experiments were performed in at least duplicates.

Assay [2] deals with T2, human coagulation Factor IX (human, UniProt P00740 47-461).
T2 construct: also called FIX
T2 sequence (P00740 47-461 T194A limits assumed): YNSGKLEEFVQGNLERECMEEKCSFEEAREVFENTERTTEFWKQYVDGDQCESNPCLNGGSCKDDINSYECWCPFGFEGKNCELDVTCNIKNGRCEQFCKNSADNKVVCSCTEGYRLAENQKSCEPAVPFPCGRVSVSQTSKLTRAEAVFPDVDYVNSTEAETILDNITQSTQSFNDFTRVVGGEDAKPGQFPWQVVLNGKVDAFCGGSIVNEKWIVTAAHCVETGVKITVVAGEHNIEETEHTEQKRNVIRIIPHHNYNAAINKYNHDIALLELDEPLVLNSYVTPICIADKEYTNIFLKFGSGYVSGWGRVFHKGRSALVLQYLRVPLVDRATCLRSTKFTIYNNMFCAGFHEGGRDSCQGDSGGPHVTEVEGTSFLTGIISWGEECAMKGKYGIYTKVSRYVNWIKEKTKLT
The experiment in a line: ITC, 37 °C, pH 7.4, antibody injected into FIX. On the procedure: as §1

The target in assay [3] is T3, randomly biotinylated human FIXa (human, UniProt P00740 47-191; P00740 227-461, randomly biotinylated (NHS-d-biotin)). The experiment in a line: BLI (Octet) in-tandem binning on biotinylated FIXa, 330 nM each; competitor (1st antibody): 224F3. As to the method: (§2) Binning experiments were performed using Octet fortebio systems (HTX, Red384), based on the principle of Bio-Layer Interferometry, and equipped with streptavidin sensors (Pall Life Sciences, Menlo Park, CA), and using 8-channel mode. The binning assays were performed using a modified in-tandem setup. Briefly, (1) 370 nM randomly biotinylated human FIXa (biotinylated using NHS-d-biotin from Sigma H1759 and human FIXa obtained from Haematologic Technologies, Essex Junction, VT) was captured by streptavidin tips (dip and read biosensors Part NO:18-5019, Pall Life Sciences, Menlo Park, CA) for 5 minutes, (2) 330 nM of a first bivalent anti-FIXa antibody was then offered to the streptavidin tips, and incubated for 10 minutes until the biotinylated FIXa were fully saturated and (3) the tips were then offered to an equimolar solution of 330 nM of the first antibody and 330 nM of a second bivalent anti-FIXa antibody for 5 minutes. […] Unspecific binding were evaluated by including an unrelated human IgG4 bivalent antibody as first and second antibody control.
T3 sequence (P00740 47-191, chain 1 of 2): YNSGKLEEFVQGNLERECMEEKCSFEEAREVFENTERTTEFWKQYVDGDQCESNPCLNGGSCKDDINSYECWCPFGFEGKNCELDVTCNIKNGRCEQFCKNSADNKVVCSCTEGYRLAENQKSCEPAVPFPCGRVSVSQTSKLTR
T3 sequence (P00740 227-461, chain 2 of 2): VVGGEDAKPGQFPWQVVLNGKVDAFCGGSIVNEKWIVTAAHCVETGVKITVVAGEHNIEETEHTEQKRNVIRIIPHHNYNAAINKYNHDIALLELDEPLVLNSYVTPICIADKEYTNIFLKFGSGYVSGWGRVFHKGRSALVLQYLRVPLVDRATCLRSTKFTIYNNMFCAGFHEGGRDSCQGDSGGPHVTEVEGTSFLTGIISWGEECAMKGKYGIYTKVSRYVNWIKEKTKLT
In general terms: Biolayer interferometry detects binding as a change in optical thickness at a sensor tip.

Assay [4] has as its target T3, randomly biotinylated human FIXa. The assay is described as follows: BLI (Octet) in-tandem binning on biotinylated FIXa, 330 nM each; competitor (1st antibody): mAb01-2434. As to the method: as §2
The target is the same in assay [5]. The experiment in a line: BLI (Octet) in-tandem binning on biotinylated FIXa, 330 nM each; competitor (1st antibody): mAb01-1767. As to the method:
as §2

Assay [6] has the same target. The experiment in a line: BLI (Octet) in-tandem binning on biotinylated FIXa, 330 nM each; competitor (1st antibody): hIgG4 (control). As to the method: as §2
Assay [7] deals with T4, human coagulation Factor X (human, UniProt P00742 41-179; P00742 183-488).
T4 construct: also called FX
T4 sequence (P00742 41-179, chain 1 of 2): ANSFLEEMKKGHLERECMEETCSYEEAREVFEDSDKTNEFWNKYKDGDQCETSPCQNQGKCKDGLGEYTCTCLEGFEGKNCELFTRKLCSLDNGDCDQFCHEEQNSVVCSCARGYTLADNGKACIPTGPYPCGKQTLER
T4 sequence (P00742 183-488, chain 2 of 2): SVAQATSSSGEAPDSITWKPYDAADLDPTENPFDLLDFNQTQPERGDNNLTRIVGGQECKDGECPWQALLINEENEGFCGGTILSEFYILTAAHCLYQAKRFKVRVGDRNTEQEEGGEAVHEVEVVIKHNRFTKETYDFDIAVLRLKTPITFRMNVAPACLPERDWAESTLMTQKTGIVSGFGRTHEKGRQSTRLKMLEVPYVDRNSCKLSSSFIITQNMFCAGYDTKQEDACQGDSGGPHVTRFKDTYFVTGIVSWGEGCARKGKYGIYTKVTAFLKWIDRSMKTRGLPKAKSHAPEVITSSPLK
The experiment in a line: ITC, 37 °C, pH 7.4, antibody injected into FX. As to the method:
as §1
In general terms: Isothermal titration calorimetry measures the heat released or taken up as one component is titrated into another.

T1 sequence (P00740 47-191, chain 1 of 2): as the sequence (P00740 47-191, chain 1 of 2) above
T1 sequence (P00740 227-461, chain 2 of 2): as the sequence (P00740 227-461, chain 2 of 2) above

B1: mAb01-9994 (antibody, V domains shown)
VH: EVQLVESGGGLVQPGRSLRLSCAASGFTFHDYAMHWVRQVPGKGLEWVSGISWKGDIGGYVDSVKGRFTISRDNEKNSLYLQMNSLRAEDTALYYCVKSYGSGSFYNAFDSWGQGTLVTVSS
VL: DIQMTQSPSTLSASVGDRVTITCRASQSISSWLAWYQQKPGKAPKFLIYKASRLDRGTPSRFSGSGSGTEFSLTISSLQPDDFATYYCLEYSSYIRTFGQGTKVEIK
notes: Bivalent IgG
What is called Kd is the constant that tells how readily two partners part at equilibrium. Regarding B1, the Kd in assay [1] was determined as 1800 nM; in assay [2], 2480 nM. Further, the interferometry response value in assay [3] was 0.4; in assay [4] it was 0.56; in assay [5], 0.01; in assay [6] it was 0.75.

B2: mAb01-9978 (antibody, V domains shown)
VH: B1 VH
VL: B1 VL with F46L, D55E
notes: Bivalent IgG
In the case of B2, the Kd in assay [1] stood at 3570 nM; in assay [2], 5600 nM. Also, the interferometry response value in assay [3] was found to be 0.24; in assay [4], 0.34; in assay [5], 0.01; in assay [6], 0.4.

B3: mAb01-9933 (antibody, V domains shown)
VH: B1 VH with R19K, H30D, E75A, M83L, V97A
VL: B1 VL with V15A, R18E, F46L, R53K, T58V, S77D
notes: Bivalent IgG
Turning to B3, the Kd in assay [1] stood at 1300 nM; in assay [2] it was 2390 nM. For the same molecule, the interferometry response value in assay [3] was 0.34; in assay [4], 0.46; in assay [5], 0.02; in assay [6] it was 0.59.

B4: mAb01-9985 (antibody, V domains shown)
VH: B1 VH with K54R, D62K, E75A
VL: B1 VL with R53K, D55E
notes: Bivalent IgG
B4: the results for the Kd in assay [1] and in assay [2] were 1260 nM and 1920 nM, respectively. The interferometry response value is 0.44 in assay [3], 0.6 in assay [4], 0.02 in assay [5] and 0.83 in assay [6].

B5: mAb01-8913 (antibody, V domains shown)
VH: EVQLVQSGAEVKKPGESLRISCKGSGYSFSTSWIVWVRQMPGKGLEWMGMIDPSDSFTSYSPSFQGHVTISADKSISTAYLQWSSLKASDTAMYYCARLHYYNSEEFDVWGQGTLVTVSS
VL: EIVLTQSPGTLSLSAGERATLSCRASQSVSSSYLAWYQQKPGQAPRLLIYGASSRARGIPDRFSGSGSGTDFTLTISRLEPEDFAVYYCQQFGSSRLFTFGQGTKLEIK
notes: Bivalent IgG
In assay [7], B5 returned a Kd of 350 nM.

B6: mAb01-9772 (antibody, V domains shown)
VH: B5 VH with V35S, F57Y, L115M
VL: B5 VL with A15P, A52Q, A56T, F92Y, S94D, R96Q
notes: Bivalent IgG
Regarding B6, the Kd in assay [7] is 1370 nM.
